Assay results published in paper PMC5854669, “Zinc knuckle of TAF1 is a DNA binding module critical for TFIID promoter occupancy”.

T1: TAF1 ZnD (Homo sapiens, UniProt P21675 1256-1303)
T1 chain: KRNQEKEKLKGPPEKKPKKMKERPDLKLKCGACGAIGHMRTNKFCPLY

T2: TAF1 ZnA (Homo sapiens, UniProt P21675 1234-1371)
T2 sequence: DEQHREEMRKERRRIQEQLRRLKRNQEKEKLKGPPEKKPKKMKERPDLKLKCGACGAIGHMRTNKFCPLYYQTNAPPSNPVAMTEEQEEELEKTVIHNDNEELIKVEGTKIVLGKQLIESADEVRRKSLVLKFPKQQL

T3: TAF1 ZnC (Homo sapiens, UniProt P21675 1234-1303)
T3 sequence: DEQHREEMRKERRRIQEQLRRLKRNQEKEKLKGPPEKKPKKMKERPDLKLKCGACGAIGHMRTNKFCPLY

T4: TAF1 ZnD cysteine mutant (Homo sapiens, UniProt P21675 1256-1303, C1285A;C1288A)
T4 chain: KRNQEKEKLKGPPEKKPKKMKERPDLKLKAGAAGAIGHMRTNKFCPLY

T5: TAF1 ZnC cysteine mutant (Homo sapiens, UniProt P21675 1234-1303, C1285A;C1288A)
T5 sequence: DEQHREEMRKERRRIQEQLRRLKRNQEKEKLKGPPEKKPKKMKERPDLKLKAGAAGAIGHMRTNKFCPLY

T6: TAF1 ZnD charge mutant (Homo sapiens, UniProt P21675 1256-1303, R1295A;K1298A)
T6 chain: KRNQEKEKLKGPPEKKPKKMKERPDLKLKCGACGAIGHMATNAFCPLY


Legend:
[1] = molecular target: T1, TAF1 ZnD; test: BLI; 0.2 mM dI:dC, 5 mM Mg2+; BLI: 10 mM HEPES pH 7.9, 5 mM MgCl2, 100 mM NaCl, 10% glycerol, 0.1% ovalbumin, 0.2 mM dI:dC, 30 °C; EMSA: 10 mM HEPES pH 7.9, 5 mM MgCl2, 100 mM NaCl, 10% glycerol, 20 mM tetrasodium pyrophosphate (so in the source), 0.2 mM dI:dC, 25 °C; details: protein: recombinant; tags: His-GB1; label: 5'-biotin (BLI); 5'-32P (EMSA); blunt
[2] = molecular target: T2, TAF1 ZnA; test: as above; details: protein: recombinant; EMSA/proteolysis: tag removed by TEV; label: 5'-biotin (BLI); 5'-32P (EMSA); blunt
[3] = molecular target: T3, TAF1 ZnC; test: as above; details: protein: recombinant; tags: His-GB1; label: 5'-biotin (BLI); 5'-32P (EMSA); blunt
[4] = molecular target: T4, TAF1 ZnD cysteine mutant; test: BLI; BLI: 10 mM HEPES pH 7.9, 5 mM MgCl2, 100 mM NaCl, 10% glycerol, 0.1% ovalbumin, 0.2 mM dI:dC, 30 °C; EMSA: 10 mM HEPES pH 7.9, 5 mM MgCl2, 100 mM NaCl, 10% glycerol, 20 mM tetrasodium pyrophosphate (so in the source), 0.2 mM dI:dC, 25 °C; details: protein: recombinant; tags: His-GB1; label: 5'-biotin (BLI); 5'-32P (EMSA); blunt
[5] = molecular target: T5, TAF1 ZnC cysteine mutant; test: as above; details: protein: recombinant; tags: His-GB1; label: 5'-biotin (BLI); 5'-32P (EMSA); blunt
[6] = molecular target: T6, TAF1 ZnD charge mutant; test: as above; details: protein: recombinant; tags: His-GB1; label: 5'-biotin (BLI); 5'-32P (EMSA); blunt

Binder | Kd [1] [nM] | Kd [2] [nM] | Kd [3] [nM] | binding result [4] | binding result [5] | binding result [6]
IMD (Inr, MTE, DPE of super core promoter) (dsDNA) DNA 1: GTCCTCAGTCGCGATCGAACACTCGAGCCGAGCAGACGTGCCTA DNA 2: TAGGCACGTCTGCTCGGCTCGAGTGTTCGATCGCGACTGAGGAC | 503 ± 67 | 288 ± 46 | 343 ± 42 | no binding | no binding | no binding
CD1P (cyclin D1 core promoter) (dsDNA) DNA 1: AGGGGAGTTTTGTTGAAGTTGCAAAGTCCTGGAGCCTCCAGAGGGCTGTCG DNA 2: CGACAGCCCTCTGGAGGCTCCAGGACTTTGCAACTTCAACAAAACTCCCCT |  | 411 ± 101 |  |  |  | 
Random DNA (dsDNA) DNA 1: GAATGTCGCGAAGGCAGCGTTCGCGAAGACAGCAAAGAAG DNA 2: CTTCTTTGCTGTCTTCGCGAACGCTGCCTTCGCGACATTC |  | 1010 ± 228 |  |  |  | 
